Results from PMC11065875.

System: H-24 (His-ELP) (synthetic; E. coli BL21 expressed)
Assay: coacervate partitioning, fluorimetry
Conditions: EMSA in 2.5% agarose, 30 min incubation, 0.5 uM ssDNA1, fusions in 1x PBS (or 50% artificial fluids) at RT, His-ELPs at RT in 37 mM citric acid/126 mM Na2HPO4 …; for binding signal (% in coacervate): 60 C (LLPS 1)

## GGGTTCCTTGCTAGCCAGAGAGCTCCCGGGCTCGACCTGGTCTAACAAGAGAGACC [ATTO488-ssDNA1]
pH 6.5, artificial nasal swab fluid
  binding signal (% in coacervate): 80
pH 6.5, artificial saliva
  binding signal (% in coacervate): 70
pH 6.5, buffer
  binding signal (% in coacervate): 60
pH 8, 300 mM NaCl, 30 C (LLPS 2)
  binding signal (% in protein-poor supernatant): > 90
